Reference: patent US6509445 (NISSIN FOOD PRODUCTS, dated 2003)

Biological target: urokinase receptor (uPAR) (human, UniProt Q03405 23-305)
Assay: cell-based or functional assay

Sequence of urokinase receptor (uPAR) (Q03405 23-305): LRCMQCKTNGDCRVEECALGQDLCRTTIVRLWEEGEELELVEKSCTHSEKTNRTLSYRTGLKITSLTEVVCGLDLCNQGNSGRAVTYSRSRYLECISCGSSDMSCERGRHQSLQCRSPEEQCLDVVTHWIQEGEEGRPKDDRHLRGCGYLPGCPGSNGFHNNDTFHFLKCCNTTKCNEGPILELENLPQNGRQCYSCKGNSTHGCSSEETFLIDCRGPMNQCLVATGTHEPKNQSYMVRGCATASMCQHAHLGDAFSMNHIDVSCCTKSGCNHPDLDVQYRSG

Invasion inhibitory effect ID50 (nM), A375 cells [nM] | Invasion inhibitory effect ID50 (nM), DU-145 cells [nM] | Invasion inhibitory effect ID50 (nM), GE0 cells [nM] | Invasion inhibitory effect ID50 (nM), H0C-I cells [nM] | Invasion inhibitory effect ID50 (nM), MDA-MB-435 cells [nM] | Invasion inhibitory effect ID50 (nM), PC-3 cells [nM] | Invasion inhibitory effect ID50 (nM), SMT-ccl cells [nM] | Binder
50 | 0.5 | 110 | 10 | 3.5 | 20 | 1.2 | chimeric protein ATFHI (other) MSNELHQVPSNCDCLNGGTCVSNKYFSNIHWCNCPKKFGGQHCEIDKSKTCYEGNGHFYRGKASTDTMGRPCLPWNSATVLQQTYHAHRSDALQLGLGKHNYCRNPDNRRRPWCYVQVGLKPLVQECMVHDCADGTVAACNLPIVRGPCRAFIQLWAFDAVKGKCVLFPYGGCQGNGNKFYSEKECREYCGVPG
100 | 5 | 200 | 20 | 20 | 20 | 1 | chimeric protein ATFHI-CL (other) MSNELHQVPSNCDCLNGGTCVSNKYFSNIHWCNCPKKFGGQHCEIDKSKTCYEGNGHFYRGKASTDTMGRPCLPWNSATVLQQTYHAHRSDALQLGLGKHNYCRNPDNRRRPWCYVQVGLKPLVQECMVHDCADGTVAACNLPIVRGPCRAFIQLWAFDAVKGKCVLFPYGGCQGNGNKFYSEKECREYCGVPGDGDEELL
120 | 2.9 | 20 | 50 | 5.6 | 50 | 10 | chimeric protein ATFHI-ML (other) MSNELHQVPSNCDCLNGGTCVSNKYFSNIHWCNCPKKFGGQHCEIDKSKTCYEGNGHFYRGKASTDTMGRPCLPWNSATVLQQTYHAHRSDALQLGLGKHNYCRNPDNRRRPWCYVQVGLKPLVQECMVHDCADGKKPSSPPEELKFQGTVAACNLPIVRGPCRAFIQLWAFDAVKGKCVLFPYGGCQGNGNKFYSEKECREYCGVPG
